Columns and labels:
MdERF5L [1] = target: T1, MdERF5L (Malus domestica, UniProt A0A498JN73 1-332); experiment: EMSA; cold probe competes; LightShift Chemiluminescent EMSA kit (Thermo), per manufacturer's protocol; buffer, salt, pH and temperature not stated; details: protein: recombinant; tags: GST (pGEX-4T-1); label: biotin (hot probe); blunt
MdERF5L [2] = target: T1, MdERF5L; experiment: EMSA; mutations disrupted binding; LightShift Chemiluminescent EMSA kit (Thermo), per manufacturer's protocol; buffer, salt, pH and temperature not stated; details: protein: recombinant; tags: GST (pGEX-4T-1); blunt
MdWRKY9 = MdWRKY9 (Malus domestica, UniProt D9ZJG3 1-520); experiment: EMSA; LightShift Chemiluminescent EMSA kit (Thermo), per manufacturer's protocol; buffer, salt, pH and temperature not stated; details: protein: recombinant; tags: GST (pGEX-4T-1) or His (pET-32a); label: biotin (hot probe); blunt
Chain of MdWRKY9 (D9ZJG3 entry or part of it): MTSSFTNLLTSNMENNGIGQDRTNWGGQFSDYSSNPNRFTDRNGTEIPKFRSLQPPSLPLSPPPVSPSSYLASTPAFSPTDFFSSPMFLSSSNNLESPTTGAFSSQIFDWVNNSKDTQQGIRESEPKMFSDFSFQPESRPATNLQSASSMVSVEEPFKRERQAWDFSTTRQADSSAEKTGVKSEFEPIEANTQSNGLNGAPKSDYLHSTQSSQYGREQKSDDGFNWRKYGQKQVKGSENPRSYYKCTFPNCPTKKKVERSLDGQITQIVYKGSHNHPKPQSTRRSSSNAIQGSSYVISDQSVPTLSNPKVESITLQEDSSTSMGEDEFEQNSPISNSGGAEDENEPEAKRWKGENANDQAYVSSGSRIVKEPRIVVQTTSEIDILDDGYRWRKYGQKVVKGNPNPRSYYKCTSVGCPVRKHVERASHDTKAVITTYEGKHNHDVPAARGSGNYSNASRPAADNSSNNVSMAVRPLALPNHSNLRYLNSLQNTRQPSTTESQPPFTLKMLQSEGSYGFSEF

T1 sequence (A0A498JN73 entry or part of it): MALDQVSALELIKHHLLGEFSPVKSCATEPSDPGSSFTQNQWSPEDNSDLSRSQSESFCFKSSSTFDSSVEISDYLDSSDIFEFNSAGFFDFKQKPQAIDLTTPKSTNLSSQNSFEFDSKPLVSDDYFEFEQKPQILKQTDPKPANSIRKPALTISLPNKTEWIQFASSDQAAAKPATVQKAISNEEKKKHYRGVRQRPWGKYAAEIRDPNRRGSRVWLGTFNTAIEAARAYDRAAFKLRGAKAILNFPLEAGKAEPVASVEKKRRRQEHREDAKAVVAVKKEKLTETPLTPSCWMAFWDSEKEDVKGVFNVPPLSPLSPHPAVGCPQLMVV

B1: MdACS1-DRE probe (dsDNA)
DNA 1: AAAATAGAGGAGAAAAATGGCCGACAAAATTTGTTGTGGCTACTA
DNA 2: TAGTAGCCACAACAAATTTTGTCGGCCATTTTTCTCCTCTATTTT
B1: binds (MdERF5L [1]).

B2: MdACS1-DRE mutant probe (dsDNA)
DNA 1: AAAATAGAGGAGAAAAATGGTCTAGAAAATTTGTTGTGGCTACTA
DNA 2: TAGTAGCCACAACAAATTTTCTAGACCATTTTTCTCCTCTATTTT
B2: no binding (MdERF5L [2]).

B3: MdERF5L-W-box probe (dsDNA)
DNA 1: AATTTGTATATCGTTTTCTGGGTCAATGATACGTTTTTTTATATTA
DNA 2: TAATATAAAAAAACGTATCATTGACCCAGAAAACGATATACAAATT
B3: binds (MdWRKY9).
